Results taken from US5451411A, “Methods and compositions for the oral delivery of therapeutic agents” (University of Washington, priority 1993, dated 1995).

How the values were obtained:
[1] = Encapsulation efficiency of 125I-TGF-β1 in alginate beads; type: physicochemical
Protocol: Radioiodination of TGF-β1 : Radioiodination of TGF-β1 was completed in a 3.0-mL Eppendorf tube using a modified chloramine-T method (A. Tuong et al., "Site Specific Radioiodination of Recombinant Himdin," Annal. Biochem. 189:186-191 (1990)). To TGF-β1 (1 mg/1 mL) in 5 mMHCl, 10 μL of carrier-free Na^125 I (1.0 mCi) was added and mixed for 5 minutes. 100 μL of 0.1% chloramine-T was then added and, after vortexing for 60 seconds, the reaction was stopped by the addition of 100 μL of aqueous 0.1% mercaptoethanol followed by 100 μL of […]. ^125 I-TGF-β1 was diluted by adding 1.2 mL of citrate phosphate buffer (CPB), pH 2.6.
Free ^125 I was separated from ^125 I-TGF-β1 by gel filtration on a prepacked Sephadex G-25 column from Pharmacia (Uppsala, Sweden) preequilibrated with CPB. Twenty fractions of 0.5 mL each were collected, and aliquots were counted for activity using a γ-scintillation counter (Model 1185 GammaTrac; Tm Analytic; Elk Grove Village, IL). Separated ^125 I-TGF-β1 (S.A.=0.72 nCi/ng or 187 ng/μL was stored at 4° C. in 1.5 mL-Eppendofftubes. […]
Formation of Beads: 1.5 mL of the prebead mixture was drawn into a syringe equipped with a 30 G needle. […] If ^125 I-TGF-β1 was incorporated in the beads, calcium chloride was retained and counted for activity along with the 1.5 mL-Eppendoff tube to determine the % encapsulation of TGF-β1 in beads. […]

[2] = type: physicochemical
Protocol: Beads prepared in accordance with the procedure of Example 1 and containing 50 μg of ^125 I-TGF-β1 in 3.75-7.5 mg (original weight of alginate) were transferred to 15.0 mL polypropylene tubes containing 13.0 mL of PBS or of 0.1 N HCl at 37° C. In some cases, 1% BSA was added to the release media. The polypropylene tubes were gently shaken using a orbital shaker (200 rotations/minutes). At selected times, 100 μL aliquots were taken and counted for radioactivity. Care was taken so that aliquots contained no beads or bead fragments. The cumulative ^125 I-TGF-β1 released from the beads was calculated after correcting for volume changes. After 24 hours, the beads in 0.1 N HCl were transferred to PBS.
Alginate beads containing TGF-β1 and 90 kDa PAA (75:10 w/w in alginate:PAA) were prepared following the procedure of Example 1, and were acid treated for 30 minutes at 37° C. in 0.1 N HCl, as described in Example 2. The beads were then placed in PBS, pH 7.4, and the immunoreactivity of released TGF-β1 was determined by ^125 I radiolabel and ELISA, as described in Example 2. In addition, a growth inhibitory assay (GIA) was used to determine the bioactivity of the TGF-β1. The GIA measures the ability of TGF-β1 to inhibit the growth of mink lung epithelial cells (ATCC #CCL64) (T. Ikedaet al., "Human Transforming Growth Factor Type β2: Production By a Prostatic Adenocarcinoma Cell Line, Purification and Initial Characterization," Biochemistry 26:2406-2410 (1987)). The activity of the growth factor was determined by the inhibitory response of the cells to different concentrations of TGF-β1. Cell viability was based on the enzymatic cleavage by metabolically active cells of a tetrazolium salt into an orange/red formazan product. Prior to the assay cells were trypsinized and plated in a 96-well flat bottomed plate (Costar) at a concentration of 1000 cells/well. After allowing the cells to attach, samples containing the TGF-β1 and a reference standard were diluted to concentrations ranging from 1000 to 1.95 pg/ml and added to the wells. The cells were incubated for four days after which time a 100 μL solution containing 25 μg of sodium 3"-[1-(phenylamino)-carbonyl]-3,4-tetrazolium-bis(4-methoxy-6-nitro) benzene sulfonic acid hydrate (Diagnostic Chemicals, Ltd.) and 5 mM phenazine methosulfate (Aldrich) in media was added to each well. The cells were then incubated for 7 hours and the plates read on a microplate reader at an absorbance of 450 nm with a 630 nm reference filter. The specific activity of a sample was calculated relative to the reference material.

## TGF-β1: TGF-β1 (1 mg/mL in 5 mM HCl) obtained from Bristol-Myers Squibb (Seattle, WA)
[1]; prebead mixtures made in polypropylene tubes, most preparations
  Encapsulation efficiency of TGF-β1 in alginate beads: greater than 97.5%
[1]; use of glass vials
  Loss of TGF-β1: more than 98%
[2]; 0.1 N HCl 37° C. 0.25-24 hr, then PBS pH 7.4
  Effect of acid treatment time on dissolution profiles and TGF-β1 release rates: little difference
[2]; acid treated beads 75:10 w/w PAA 90 kDa, PBS pH 7.4
  Total release of TGF-β1 (125I radiolabel): 90%
